Molecular target: split SUMO-modified PCNA (N-fragment and ^SUMOC-fragment self-assembled) (yeast) (UniProt P15873)
Experiment: SEC

stoichiometry N: 3
Substance: split SUMO-modified PCNA (N-fragment and ^SUMOC-fragment self-assembled) (from UniProt P15873 1-163; P15873 165-258) (complex)

From publication PMC3193175
